Test results taken from patent publication US20210070876A1 (LES LABORATOIRES SERVIER, published 2021).

T1: human CD73 ECD fused C-terminally to human IgG1 Fc (human, UniProt P21589 27-549, limits assumed)
T1 construct: Expressed in ExpiCHO; also called Hs CD73 ECD; Fc-tagged antigen
T1 sequence: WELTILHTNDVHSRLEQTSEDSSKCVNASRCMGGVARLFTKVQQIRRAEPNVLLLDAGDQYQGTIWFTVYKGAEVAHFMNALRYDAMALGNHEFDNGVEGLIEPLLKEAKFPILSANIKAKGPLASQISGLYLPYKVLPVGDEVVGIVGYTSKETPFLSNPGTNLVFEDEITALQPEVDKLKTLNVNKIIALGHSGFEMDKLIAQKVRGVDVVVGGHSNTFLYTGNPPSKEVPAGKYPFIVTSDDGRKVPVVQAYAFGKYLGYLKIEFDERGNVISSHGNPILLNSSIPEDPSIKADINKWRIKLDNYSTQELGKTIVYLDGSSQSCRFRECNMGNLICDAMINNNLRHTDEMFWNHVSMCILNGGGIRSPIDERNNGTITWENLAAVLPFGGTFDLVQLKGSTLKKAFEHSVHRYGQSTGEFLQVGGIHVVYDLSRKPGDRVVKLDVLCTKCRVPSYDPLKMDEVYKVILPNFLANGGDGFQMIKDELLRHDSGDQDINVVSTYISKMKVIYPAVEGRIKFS

T2: cynomolgus CD73 ECD fused C-terminally to human IgG1 Fc (cynomolgus monkey (Macaca …, UniProt A0A2K5V5U7 27-549))
T2 construct: also called Cy CD73 ECD; Fc-tagged antigen; not shown: Human IgG1 Fc (printed as AA P101-K330) fused to the C-terminus of the ECD, and any linker
T2 sequence: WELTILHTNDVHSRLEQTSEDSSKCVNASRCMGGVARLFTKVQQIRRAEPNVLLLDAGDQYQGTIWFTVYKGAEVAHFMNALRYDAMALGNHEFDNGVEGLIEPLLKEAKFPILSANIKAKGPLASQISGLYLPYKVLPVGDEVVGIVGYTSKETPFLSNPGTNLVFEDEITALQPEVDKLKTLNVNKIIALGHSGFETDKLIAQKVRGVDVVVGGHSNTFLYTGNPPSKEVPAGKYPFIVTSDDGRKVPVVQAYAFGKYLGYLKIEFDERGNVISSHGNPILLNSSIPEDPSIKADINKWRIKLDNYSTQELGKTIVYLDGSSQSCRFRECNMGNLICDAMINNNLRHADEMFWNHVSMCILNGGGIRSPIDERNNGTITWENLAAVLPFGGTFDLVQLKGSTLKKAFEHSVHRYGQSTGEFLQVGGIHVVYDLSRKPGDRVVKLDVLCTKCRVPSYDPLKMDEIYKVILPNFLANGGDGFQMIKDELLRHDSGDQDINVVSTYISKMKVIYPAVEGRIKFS

T3: His-tagged human CD73 ECD (human, UniProt P21589 27-549)
T3 construct: runs as a homodimer of about 124-125 kDa in SEC-MALS; also called CD73-His; CD73-His ECD antigen
T3 sequence: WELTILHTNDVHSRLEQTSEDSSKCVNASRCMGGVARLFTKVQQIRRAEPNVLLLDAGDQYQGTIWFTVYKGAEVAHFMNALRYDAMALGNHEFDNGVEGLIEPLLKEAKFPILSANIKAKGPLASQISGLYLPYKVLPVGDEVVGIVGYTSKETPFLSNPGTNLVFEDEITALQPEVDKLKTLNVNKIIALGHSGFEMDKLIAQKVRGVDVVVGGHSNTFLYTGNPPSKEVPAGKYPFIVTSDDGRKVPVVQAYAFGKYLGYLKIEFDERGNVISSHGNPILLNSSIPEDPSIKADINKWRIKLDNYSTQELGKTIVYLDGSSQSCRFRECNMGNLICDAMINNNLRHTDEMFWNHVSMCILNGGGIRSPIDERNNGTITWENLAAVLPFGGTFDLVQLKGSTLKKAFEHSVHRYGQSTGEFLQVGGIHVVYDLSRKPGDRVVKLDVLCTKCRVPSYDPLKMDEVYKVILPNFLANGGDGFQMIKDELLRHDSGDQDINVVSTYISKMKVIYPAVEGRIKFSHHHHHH

T4: His-tagged cynomolgus CD73 ECD (cynomolgus monkey (Macaca fascicularis))
T4 chain: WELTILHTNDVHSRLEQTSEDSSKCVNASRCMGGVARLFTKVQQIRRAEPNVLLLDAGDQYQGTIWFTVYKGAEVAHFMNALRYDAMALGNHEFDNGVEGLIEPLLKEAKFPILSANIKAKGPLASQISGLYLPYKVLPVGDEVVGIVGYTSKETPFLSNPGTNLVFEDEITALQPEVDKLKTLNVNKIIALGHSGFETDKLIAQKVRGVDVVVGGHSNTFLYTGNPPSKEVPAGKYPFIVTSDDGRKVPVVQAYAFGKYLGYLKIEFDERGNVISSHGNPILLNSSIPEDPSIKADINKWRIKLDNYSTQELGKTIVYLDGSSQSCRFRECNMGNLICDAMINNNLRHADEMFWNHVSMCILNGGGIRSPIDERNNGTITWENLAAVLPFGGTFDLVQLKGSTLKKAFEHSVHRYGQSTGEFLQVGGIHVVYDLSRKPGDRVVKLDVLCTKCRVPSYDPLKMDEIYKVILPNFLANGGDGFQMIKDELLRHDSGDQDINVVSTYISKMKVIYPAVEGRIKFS


Columns and labels:
[1] = target: T1, human CD73 ECD fused C-terminally to …; test: SPR, Fc-tagged CD73 ECD captured, Fab injected
Protocol: (§1) Kinetic binding analysis of anti-CD73 mAbs and Fab fragments was performed by Surface Plasmon Resonance (SPR), using a Continuous Flow Microspotter (CFM, Wasatch Microfluidics, Salt Lake City, US) combined with an IBIS MX96 SPR instrument (IBIS Technologies, The Netherlands). CD73 cDNAs coding for the extracellular domains of human and cynomolgus CD73 were synthesized and each cloned into a vector containing a CMV promoter and either a C-terminal 6× histidine sequence (SEQ ID NO: 45) for His-tagged CD73 ECD, or a human IgG1 Fc sequence (AA P101-K330), resulting in fusion of IgG1 Fc C-terminally to the cloned CD73 ECD. The His-tagged and Fc-fusion constructs were transiently expressed using an ExpiCHO™ expression system and purified either by standard Ni-NTA chromatography or standard MabSelect™ SuRe™ procedures, respectively. Anti-CD73 Fab fragments were generated by digesting full-length IgG1 antibodies with GingisKHAN enzyme, using a kit provided by Genovis (Sweden). Affinities of Fab fragments were measured by capturing Fc-tagged antigens on a G-a-hu-IgG Fc SensEye® for 15 minutes using the CFM. After spotting, the SensEye® was positioned in the IBIS MX96 biosensor and immobilized antigens were fixed by SensEye FixIt kit. Kinetic analysis was performed by injecting monomeric Fab fragments at increasing concentrations from 0.8 nM to 300 nM. After each cycle of Fab fragment injection, the surface was regenerated by 10 mM glycine pH 3, 10% glycerol. Fab association was performed for 15 minutes and antigen dissociation was performed for 15 minutes. Affinities of full-length monoclonal antibodies (mAbs) were measured by capturing mAbs on a G-a-hu-IgG Fc SensEye® (Ssens BV, The Netherlands) for 15 minutes using a Continuous Flow Microspotter (CFM, Wasatch Microfluidics, Salt Lake City, US). After spotting, the SensEye was docked in the IBIS MX96 and spotted mAbs were fixed by SensEye FixIt kit (Ssens BV, The Netherlands). Kinetic analysis was performed by applying a kinetic titration series injecting increasing concentrations of His-tagged antigens from 0.16 nM to 10 nM as 2-fold dilutions. The surface was regenerated before the next cycle of cynomolgus antigen injections by 100 mM H₃PO₄, pH 3. MAb association was performed for 15 minutes and antigen dissociation was performed for 45 minutes.

[2] = target: T2, cynomolgus CD73 ECD fused C-terminally …; test: SPR, Fc-tagged CD73 ECD captured, Fab injected
Protocol: as §1

[3] = target: T3, His-tagged human CD73 ECD; test: SEC-MALS, mAb:CD73 1:1
Protocol: (§2) Anti-CD73 antibodies and His-tagged CD73 were analyzed in different ratios as well as individually to analyze the size of complexes formed between CD73 homodimer and anti-CD73 antibodies. Samples were prepared by mixing […] of CD73-His with 900, 450, 90 or 0 μmol of antibody diluted into PBS, pH 7.4. Samples were incubated for 30 min at room temperature followed by separation using a UHPLC UltiMate 3000 (Thermo Scientific) and SEC X-Bridge column (Waters) at a flow rate of 1.2 mL/min. Sample running buffer was 0.01 M Citrate, 250 mM L-Arginine.HCl, pH 6.0. Following HPLC separation, all samples were analyzed using a MiniDAWN TREOS MALS detector (Wyatt) and Optilab T-rEX refractive index detector (Wyatt). Data plots were generated using Graph Pad Prism.

[4] = target: T3, His-tagged human CD73 ECD; test: SEC-MALS, mAb:CD73 0.1:1
Protocol: as §2

[5] = target: T3, His-tagged human CD73 ECD; test: SEC-MALS, mAb:CD73 0.5:1
Protocol: as §2

[6] = target: T4, His-tagged cynomolgus CD73 ECD; test: SPR, mAb captured, His-tagged CD73 ECD injected
Protocol: as §1

[7] = target: T3, His-tagged human CD73 ECD; test: SPR, mAb captured, His-tagged CD73 ECD injected
Protocol: as §1

Kd [1] [pM]	koff [1] [s⁻¹]	kon [1] [M⁻¹ s⁻¹]	Kd [2] [pM]	koff [2] [s⁻¹]	kon [2] [M⁻¹ s⁻¹]	molecular mass of complex, Peak 2 (MW, kDa) [3] [kDa]	molecular mass of complex, Peak 2 (MW, kDa) [4] [kDa]	molecular mass of complex, Peak 2 (MW, kDa) [5] [kDa]	Kd [6] [pM]	koff [6] [s⁻¹]	kon [6] [M⁻¹ s⁻¹]	Kd [7] [pM]	koff [7] [s⁻¹]	kon [7] [M⁻¹ s⁻¹]	Binder
78300	0.015	200000	77600	0.016	200000	–	–	–	–	–	–	–	–	–	21163 Fab fragment (Fab, V domains shown, not shown: small tags and cut ends, Made by digesting the full-length IgG1 with GingisKHAN enzyme (Genovis)) VH: EVQLVESGGGLVQPGGSLRLSCAASGFSFSTYWMNWVRQAPGKGLEWVANIKQDGSEKYYVDSVKGRFTISRDNAKNSLYLQMNSLRAEDTAVYYCARDISSSWFYYYGMDVWGQGTTVTVSS VL: DIQLTQSPSFLSASVGDRVTITCRASQGISSYLAWYQQKPGKAPKLLIYAASTLQSGVPSRFSGSGSGTEFTLTISSLQPEDFATYYCQQLNSYPPTFGGGTKVEIKR
800	0.0005	610000	800	0.00052	620000	–	–	–	–	–	–	–	–	–	21046 Fab fragment (Fab, V domains shown, not shown: small tags and cut ends, Made by digesting the full-length IgG1 with GingisKHAN enzyme (Genovis)) VH: EVQLVESGGGLVQPGRSLRLSCVASGFTFDDYAMHWVRQAPGKGLEWVSGISWNSGSIGYADSVKGRFTISRDNAKNSLYLQMNSLRAEDTAFYYCAQGGYAILTALEYWGQGTLVTVSS VL: DIQMTQSPSSLSASVGDRVTITCRASQGISNYLAWFQQKPGKAPKSLIYAASSLQSGVPSKFSGSGSGTDFTLTISSLQPEDFATYYCQQYNSYPLTFGGGTKVEIKR
–	–	–	–	–	–	382	969	199	50	1.1e-05	210000	40	8.3e-06	190000	antibody 21046 (antibody, human IgG1, kappa, L234A L235A, V domains shown, Fully human IgG1-LALA (L234A/L235A), kappa) VH: EVQLVESGGGLVQPGRSLRLSCVASGFTFDDYAMHWVRQAPGKGLEWVSGISWNSGSIGYADSVKGRFTISRDNAKNSLYLQMNSLRAEDTAFYYCAQGGYAILTALEYWGQGTLVTVSS VL: DIQMTQSPSSLSASVGDRVTITCRASQGISNYLAWFQQKPGKAPKSLIYAASSLQSGVPSKFSGSGSGTDFTLTISSLQPEDFATYYCQQYNSYPLTFGGGTKVEIKR
